The RNAGym collection of RNA variant scans (doi:10.1073/pnas.2313332121)

B1: TPR t1 (parent)
chain: GACCAAUCUGCCCUCAGAGCUCGAGAACAUCUUCGGAUGCAGAGGAGGCAGGCUUCGGUGGCGCGAUAGCGCCAACGUCCUCAACCUCCAAUGCAUCCCACCACAUGAUGAUGCCUGAAGAGCCUUGGUUUUUUG

Variants of: B1
Assay: polymerase ribozyme fitness, log enrichment relative to wild type (log ratio); higher = more active; in vitro selection for triplet polymerase activity
How it was run: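 A heterodimeric triplet polymerase ribozyme had each of its subunits mutagenized by PCR into a library, which was transcribed. One round of in vitro selection, done in triplicate, annealed each library with a biotinylated primer, its partner subunit and triplets, then incubated it frozen at −7 °C before gel excision of extended constructs, streptavidin-bead capture and RT-PCR. Fitness is the logarithm of genotype enrichment relative to wild-type enrichment, based on Illumina sequencing of inputs and outputs and inverse-variance-weighted replicate averages. A base-2 logarithm is used, and genotypes were kept only with ≥10 input reads and ≥1 read per output.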

| Variant | polymerase ribozyme fitness (log ratio) |
| --- | --- |
| G42C C49U C79A C102G G120A | -7.51 |
| G42C C49U G63A G120A G128U | -5.69 |
| G42C C49U G128A | -5.33 |
| G42C C53A C85U C114G C124U U133G | -3.5 |
| G42C C53U G93A | -3.13 |
| G42C C56A G122A | -2.92 |
| G42C C56G C72A G77C A100U U132A | -3.99 |
| G42C C56G C72G C88G C114A | -7.1 |
| G42C C56G C88G C114A | -5.36 |
| G42C C56U U81A C124G U132A | -0.851 |
| G42C C62G | -4.74 |
| G42C C64U | -0.982 |
| G42C C72A | -1.16 |
| G42C C72G | -1.76 |
| G42C C73G C79U A95G U129C | -3.37 |
| G42C C80U U92G | -3.41 |
| G42C C82U | -1.49 |
| G42C C88G | -3.51 |
| G42C C88U U106A A121C U125A | -1.81 |
| G42C C94A | -2.23 |
| G42C C101U | -1.45 |
| G42C C114A | -2.26 |
| G42C C115U G120U U129G | -4.74 |
| G42C G44U A74C C99A C123G | -6.31 |

| Variant | polymerase ribozyme fitness (log ratio) |
| --- | --- |
| G42C G44U G63U C123A G128C | -3.33 |
| G42C G45U G48U U131G | -3.09 |
| G42C G48U C70A G120U | -5.45 |
| G42C G52U | -2.21 |
| G42C G57A C64A C85A G113U | -7.14 |
| G42C G57C A66C | -4.36 |
| G42C G60A G120U | -2.21 |
| G42C G61A | -0.466 |
| G42C G61A A121C U133G | 0.579 |
| G42C G63A C88U | -3.63 |
| G42C G69U C70G | -1.55 |
| G42C G71U U96G | -3.01 |
| G42C G110C | -6.03 |
| G42C G120U | -1.69 |
| G42C G127A | -2.97 |
| G42C U55C G60A C124G U132A | 0.349 |
| G42U A43U G63C U78C | -3 |
| G42U A46U U96G | -2.26 |
| G42U A50G G57C G61U C80A C82A G120A | -4.58 |
| G42U A74G C85A | -1.78 |
| G42U A84G | -3.57 |
| G42U C49U G61A | -1.64 |
| G42U C53G | -1.45 |
| G42U C53U | -1.85 |

| Variant | polymerase ribozyme fitness (log ratio) |
| --- | --- |
| G42U C56G C123U | -0.406 |
| G42U C72G C94U G120U U131A | -2.67 |
| G42U C72U G93U A118G | -4.06 |
| G42U C72U U125A | -1.92 |
| G42U C73A U106C | -1.97 |
| G42U C79U A100U | -2.8 |
| G42U C88A U92A G120A | -1.96 |
| G42U G45U C88G A90G | -1.09 |
| G42U G47U G60A U112A C114U G117C | -5.02 |
| G42U G47U G120U | -1.57 |
| G42U G48A C104U | -0.902 |
| G42U G48U | -3.89 |
| G42U G51C | -6.75 |
| G42U G52C C97G C115U | -6.37 |
| G42U G52U U96A C124G | -1.76 |
| G42U G57U C85A | -2.51 |
| G42U G58C U87C G120A C123G U125A | 0.38 |
| G42U G63A C89U | -3.28 |
| G42U G63A G93U | -3.94 |
| G42U G63C C76A G77U A90U G117C G127U G128C | -3.83 |
| G42U G69A | -5.35 |
| G42U G69C G120U | -3.45 |
| G42U G71A | -2.43 |
| G42U G71A U92A | -3.78 |

| Variant | polymerase ribozyme fitness (log ratio) |
| --- | --- |
| G42U G77U | -1.86 |
| G42U G93C U133A | -3.57 |
| G42U G117A | -2.9 |
| G42U G135U | -1.66 |
| G42U U54G C76U A111G | -2.36 |
| G42U U59A G69U | -0.413 |
| G42U U87C C123A U131C | -0.903 |
| G42U U87G | -0.907 |
| G42U U106A | -1.56 |
| A43C A74G C101A A111G | -3.37 |
| A43C C49G A84G C115U G135U | -6.22 |
| A43C C49U G63U A66C | -5.38 |
| A43C C56A U59A C72U | -3.55 |
| A43C C56U | -2.57 |
| A43C C62G G120A | -4.98 |
| A43C C62U U87G C88G A90C G127C U132C | -3.94 |
| A43C C70A C94U | -6.65 |
| A43C C70U C82A A91U G93U U96C C124G | -3.67 |
| A43C C76U C98U G117U | -7.18 |
| A43C C94G | -4.54 |
| A43C C94U | -2.66 |
| A43C C115U | -3.33 |
| A43C C123A | -2.65 |
| A43C G44C | -1.05 |

| Variant | polymerase ribozyme fitness (log ratio) |
| --- | --- |
| A43C G45C G63C G117U A118U G135A | -5.43 |
| A43C G47U G69U | -1.43 |
| A43C G48U U54A G77U G120A G135A | -2.07 |
| A43C G60A | -2.3 |
| A43C G61C U112A | -5.07 |
| A43C G63C | -3.41 |
| A43C G69C | -4.47 |
| A43C G71U C80U G110A G113U | -7.29 |
| A43C G117U | -5 |
| A43C U55C C64U A84G G110U U125A | -6.14 |
| A43C U55C U130G | -2.82 |
| A43C U78A C82A | -3.68 |
| A43C U87C | -1.86 |
| A43C U112A G113C | -1.28 |
| A43C U112A G127C | -2.51 |
| A43C U112G | -2.77 |
| A43G A46U G63U U87A U92G G120C U130C | -6 |
| A43G A50U | -3.81 |
| A43G A50U C62A A90G U131A | -5.99 |
| A43G A50U G71U | -5.61 |
| A43G A103C A119G A121G G122U G135U | -4.67 |
| A43G C49A | -2.37 |
| A43G C49U U59G C114U | -2.13 |
| A43G C53A | -2.39 |

| Variant | polymerase ribozyme fitness (log ratio) |
| --- | --- |
| A43G C53A C89G C97G C123G | -5.57 |
| A43G C56U C79G A111G | -5.35 |
| A43G C64U C82G C114U A119G U131A | -1.99 |
| A43G C70A | -4.41 |
| A43G C72A C102U C114G | -4.55 |
| A43G C73G U78A A111G | -3.33 |
| A43G C80U | -2.86 |
| A43G C82G C114U A119G U131A | -2.01 |
| A43G C86U A91U C101U U131A | -1.79 |
| A43G C114U | -1.57 |
| A43G C124A | 0.39 |
| A43G G44U A46U | -2.25 |
| A43G G44U A46U U133A | -2.67 |
| A43G G47C C64U C86G U125G G127C | -3.04 |
| A43G G48U C114U | -2.07 |
| A43G G58C G60A | -2.53 |
| A43G G60A C79U G93A | -2.95 |
| A43G G60C C73A C88A | -3.87 |
| A43G G61A G65U | -5.48 |
| A43G G61U C94G A103U C114G | -5.99 |
| A43G G69A | -6.04 |
| A43G G71C U87G | -4.59 |
| A43G G107A | -6.28 |
| A43G G110A | -3.34 |

| Variant | polymerase ribozyme fitness (log ratio) |
| --- | --- |
| A43G G120U | -1.47 |
| A43G U54G C89G C94G | -3.3 |
| A43G U78A C88U U109G | -7.02 |
| A43G U92C | -3 |
| A43U A46G C62G U106A | -5.98 |
| A43U A46G U96G U112A G128A | -3.6 |
| A43U A46U A105U C124G | -4.04 |
| A43U A46U G71U U125A U129A | -4.93 |
| A43U A46U U106A U131A | -2.17 |
| A43U A50C G77A U126C | -3.5 |
| A43U A74C | -1.55 |
| A43U A75U U126G | -3.5 |
| A43U C49A C89U A90C U133G | -1.26 |
| A43U C49G | -3.61 |
| A43U C49U G61A G113C C123U | -3.66 |
| A43U C49U U59C C70U C115U | -5.6 |
| A43U C56A C115U | -2.52 |
| A43U C56G G63A | -5.13 |
| A43U C62U G77A U126A | -5.02 |
| A43U C70U | -2.1 |
| A43U C72U | -1.17 |
| A43U C73A | -1.5 |
| A43U C73G | -2.69 |
